In paper PMC6075780, “Interaction of lipoprotein QseG with sensor kinase QseE in the periplasm controls the phosphorylation state of the two-component system QseE/QseF in Escherichia coli” (PLoS Genetics, 2018) one finds response data, which are given here for two variants.

The chains are these.
B1: T25-QseE [E. coli K-12] / T18-TM_(oppB)-QseG [E. coli K-12] (parent complex)
chain 1: MKRWPVFPRSLRQLVMLAFLLILLPLLVLAWQAWQSLNALSDQAALVNRTTLIDARRSEAMTNAALEMERSYRQYCVLDDPTLAKVYQSQRKRYSEMLDAHAGVLPDDKLYQALRQDLHNLAQLQCNNSGPDAAAAARLEAFASANTEMVQATRTVVFSRGQQLQREIAERGQYFGWQSLVLFLVSLVMVLLFTRMIIGPVKNIERMINRLGEGRSLGNSVSFSGPSELRSVGQRILWLSERLSWLESQRHQFLRHLSHELKTPLASMREGTELLADQVVGPLTPEQKEVVSILDSSSRNLQKLIEQLLDYNRKQADSAVELENVELAPLVETVVSAHSLPARAKMMHTDVDLKATACLAEPMLLMSVLDNLYSNAVHYGAESGNICLRSSLHGARVYIDVINTGTPIPQEERAMIFEPFFQGSHQRKGAVKGSGLGLSIARDCIRRMQGELYLVDESGQDVCFRIELPSSKNTK
chain 2: CVQNHNKPAIDTPAEEKIPVYQLADYLSTECSDIWALQGKSTETNPLYWLRAMDCADRLMPAQSRQQARQYDDGSWQNTFKQGILLADAKITPYERRQLVARIEALSTEIPAQVRPLYQLWRDGQALQLQLAEERQRYSKLQQSSDSELDTLRQQHHVLQQQLELTTRKLENLTDIERQLSTRKPAGNFSPDTPHESEKPAPSTHEVTPDEP

The variants in one assay derive from B1. The experiment in a line: BACTH assay (bacterial two-hybrid, β-galactosidase read-out); reporter strain BTH101; plasmids pYG242/pYG199_1.6; parent: 1.6e+03; read off a plot.
Regarding chain 1 S58N, the response was around 250 Miller units.

In the next assay the parent is B1. In words: BACTH assay (bacterial two-hybrid, β-galactosidase read-out); reporter strain BTH101; plasmids pYG242/pYG199_TM1; parent: 1.6e+03; read off a plot.
Turning to chain 1 F19L, chain 1 L21H, chain 1 I22R, chain 1 L23P, chain 1 L24P, the response was around 70 Miller units.
